Source: article PMC4741643

Target: suppressor of MEK null (sMEK1), full-length human, pGilda fusion (human) (UniProt Q6IN85)
Assay: two-hybrid; EGY48 yeast cells; pGilda-sMEK1 as bait, pJG4-5 fusions as prey; growth on medium lacking leucine, blue colonies on X-gal plates with 2% galactose, β-galactosidase activity with ONPG

Sequence of UniProt Q6IN85 (Q6IN85 whole entry, the tested form may be a part): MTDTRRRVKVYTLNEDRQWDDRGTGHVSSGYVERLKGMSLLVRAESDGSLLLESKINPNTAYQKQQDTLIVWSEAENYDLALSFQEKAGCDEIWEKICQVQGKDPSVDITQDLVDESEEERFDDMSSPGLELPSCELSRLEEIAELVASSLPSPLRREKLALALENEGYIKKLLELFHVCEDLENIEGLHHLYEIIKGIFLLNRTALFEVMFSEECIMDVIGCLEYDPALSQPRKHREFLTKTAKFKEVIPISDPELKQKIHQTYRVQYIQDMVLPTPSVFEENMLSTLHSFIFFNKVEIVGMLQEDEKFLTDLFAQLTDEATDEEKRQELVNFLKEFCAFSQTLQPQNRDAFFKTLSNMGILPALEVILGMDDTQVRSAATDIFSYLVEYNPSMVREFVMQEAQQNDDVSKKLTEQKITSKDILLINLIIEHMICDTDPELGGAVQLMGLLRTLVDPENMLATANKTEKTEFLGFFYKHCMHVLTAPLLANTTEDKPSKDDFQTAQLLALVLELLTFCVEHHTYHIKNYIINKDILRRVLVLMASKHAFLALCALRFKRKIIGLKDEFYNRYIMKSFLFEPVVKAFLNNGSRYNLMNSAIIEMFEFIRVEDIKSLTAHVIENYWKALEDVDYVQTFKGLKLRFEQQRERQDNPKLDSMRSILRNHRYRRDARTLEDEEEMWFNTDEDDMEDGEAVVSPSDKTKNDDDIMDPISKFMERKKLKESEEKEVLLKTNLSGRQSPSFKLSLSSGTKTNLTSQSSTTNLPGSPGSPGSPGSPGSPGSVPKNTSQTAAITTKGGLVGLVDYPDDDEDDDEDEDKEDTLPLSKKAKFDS

- β-galactosidase activity: 92.3 unit
Substance: vascular endothelial growth factor receptor 2 (VEGFR-2), full-length human, yeast two-hybrid construct (from UniProt P35968 1-1356)
